{"source": "paper PMC12439581", "about": "(mAbs, 2025)", "binders": {"B1": {"name": "A12 Fab (Fab, V domains shown)", "VH": "QVQLVQSGAEVKKPGSSVKVSCKASGGTFSSYAISWVRQAPGQGLEWMGGIIPIFGTANYAQKFQGRVTITADESTSTAYMELRSLRSDDTAVYYCARDNLGYCSGGSCYSDYYYYYMDVWGQGTLVTVSS", "VL": "NFMLTQPHSVSESPGKTVTFSCTRSSGRIVSDYVHWYQQRPGSAPTTVIYEDNQRPSGVPDRFSGSIDSSSNSASLTISGLKTEDEADYYCQSYDSSNAYVVFGGGTKVTVL"}, "B2": {"name": "G09 Fab (Fab, V domains shown)", "VH": "B1 VH", "VL": "SYELTQPPSVSVAPGRTATITCEGDNIGQQIVHWYRQKSDQAPVVVVYDGSRRPSGIPERFSGSNSGNTATLTISRVEAGDEADYYCQVWDITSDHVVFGGGTQLTVL"}, "B3": {"name": "B11 Fab (Fab, V domains shown)", "VH": "B1 VH", "VL": "SYELTQPPSVSVAPGQTATITCGGHNIGSNIVHWYHQKPGQAPELVISHNTNRPSGIPERFSGSNSGSTATLTISRVEAVDEADYYCQVWDSSSEHVVFGGGTKVTVL"}, "B4": {"name": "D11 Fab (Fab, V domains shown)", "VH": "B1 VH", "VL": "B1 VL with H8R, F20I, R28S, V30G, A44S, S96R, A99H, Y100E, V109L", "notes": "also called D11 mAb"}, "B5": {"name": "D11 Fab (Fab, V domains shown)", "VH": "B1 VH", "VL": "B1 VL with H8R, F20I, R28S, V30G, A44S, S96R, A99H, Y100E, V109L"}, "B6": {"name": "D11 scFv, 6xHis-FLAG removed with TEV protease (construct for crystals) (scFv, V domains shown)", "VH": "B1 VH", "VL": "B1 VL with H8R, F20I, R28S, V30G, A44S, S96R, A99H, Y100E, V109L", "notes": "source: E. coli BL21(DE3), purified (HisTrap, TEV cleavage, SEC)"}, "B7": {"name": "D11 scFv with serine at position 32 (CDR-L1) and histidine at position 49 (FWR-2) (scFv, V domains shown)", "VH": "B1 VH", "VL": "NFMLTQPRSVSESPGKTVTISCTRSSGSIGSDSVHWYQQRPGSSPTTVIHEDNQRPSGVPDRFSGSIDSSSNSASLTISGLKTEDEADYYCQSYDRSNHEVVFGGGTKLTVL", "notes": "also called D11-Y32S-Y49H (name built from the text: serine at position His32 of D11-Y32H-Y49H); source: E. coli BL21(DE3), in culture supernatant"}, "B8": {"name": "A04 Fab (Fab, V domains shown)", "VH": "B1 VH", "VL": "SYELTQPPSMSVAPGQTARITCGGDYIGGESVHWYQQKPGRAPVAVVYDDTHRPSGIPERFSGANSGNTATLTISKVEAGDEADYYCQVWDVSSDHVVFGGGTKLTVL"}, "B9": {"name": "A01 Fab (Fab, V domains shown)", "VH": "B1 VH", "VL": "SYELTQPPSVSVAPGRTATITCEGDNIGQQIVHWYQQKPGQAPVAVISSDSDRPSGIPERFSGSNSGNTATLTISRVEAGDEADYYCQVWDSGSDHVVFGGGTKVTVL", "notes": "also called A01 mAb"}, "B10": {"name": "E01 Fab (Fab, V domains shown)", "VH": "B1 VH", "VL": "NFMLTQPRSVSESPGKTVTISCTRSSGSIGSDYVHWYQQRPGSSPTTVIYEDNRRPSGVPDRFSGSIASSANSASLTISGLRPEDEADYYCQSYDSTTNHVVFGGGTKVTVL"}, "B11": {"name": "C05 scFv with T31D (CDR-L1) (scFv, V domains shown)", "VH": "B1 VH", "VL": "B1 VL with F20I, R28S, V30A, A99G, Y100S, V109L", "notes": "source: E. coli BL21(DE3), in culture supernatant"}}, "key": {"[1]": {"target": "T1, biotinylated α-cobratoxin from Naja kaouthia (Naja kaouthia, biotin through amine coupling (NHS-PEG4-Biotin), sites not stated)", "T1 chain": "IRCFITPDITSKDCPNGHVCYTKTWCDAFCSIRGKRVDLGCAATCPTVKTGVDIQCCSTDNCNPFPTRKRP", "experiment": "BLI", "details": "both partners purified"}, "[2]": {"target": "T2, biotinylated α-elapitoxin-Dpp2d from Dendroaspis polylepis (Dendroaspis polylepis (black mamba), UniProt C0HJD7)", "experiment": "BLI; […]; association at pH 7.4, dissociation at pH 5.5; 1:1 global fit", "details": "both partners purified", "T2 sequence (C0HJD7 whole entry)": "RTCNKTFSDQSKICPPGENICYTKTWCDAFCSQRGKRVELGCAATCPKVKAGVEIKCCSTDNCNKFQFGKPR"}, "[3]": {"target": "T2, biotinylated α-elapitoxin-Dpp2d from …", "experiment": "BLI; […]; association at pH 7.4, dissociation at pH 7.4; 1:1 global fit, […]", "details": "both partners purified"}, "[4]": {"target": "T3, biotinylated α-bungarotoxin from Bungarus multicinctus (Bungarus multicinctus)", "T3 sequence (P60615 22-95)": "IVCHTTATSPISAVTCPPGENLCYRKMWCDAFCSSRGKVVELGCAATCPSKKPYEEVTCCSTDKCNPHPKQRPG", "experiment": "BLI; […]; association at pH 7.4, dissociation at pH 7.4; 1:1 global fit, […]", "details": "both partners purified"}, "[5]": {"target": "biotinylated α-bungarotoxin from Bungarus multicinctus (Bungarus multicinctus, UniProt P60615)", "sequence (P60615 22-95)": "as above", "experiment": "BLI", "details": "both partners purified"}, "[6]": {"target": "T4, biotinylated α-cobratoxin from Naja kaouthia (Naja kaouthia, UniProt P01391)", "experiment": "BLI", "details": "both partners purified"}, "[7]": {"target": "T5, biotinylated α-elapitoxin-Dpp2d from Dendroaspis polylepis (Dendroaspis polylepis (black mamba), UniProt C0HJD7)", "experiment": "BLI; […]; association at pH 7.4, dissociation at pH 7.4; 1:1 model, global fit; […]", "details": "both partners purified"}, "[8]": {"target": "T3, biotinylated α-bungarotoxin from …", "experiment": "BLI; […]; association at pH 7.4, dissociation at pH 5.5; 1:1 global fit", "details": "both partners purified"}, "[9]": {"target": "T3, biotinylated α-bungarotoxin from …", "experiment": "BLI; […]; association at pH 7.4, dissociation at pH 7.4; 1:1 global fit, […]", "details": "both partners purified", "remark": "listed apart in the source"}, "[10]": {"target": "T6, α-bungarotoxin from Bungarus multicinctus (Bungarus multicinctus, UniProt P60615)", "T6 construct": "source: bought: Latoxan L8115, lyophilized purified protein", "T6 sequence (P60615 22-95)": "as above", "experiment": "crystal structure", "details": "both partners purified"}, "[11]": {"target": "T4, biotinylated α-cobratoxin from Naja …", "experiment": "DELFIA (dissociation-enhanced lanthanide fluorescence immunoassay)", "details": "one partner purified"}, "[12]": {"target": "T5, biotinylated α-elapitoxin-Dpp2d from …", "experiment": "BLI", "details": "both partners purified"}, "[13]": {"target": "T5, biotinylated α-elapitoxin-Dpp2d from …", "experiment": "DELFIA (dissociation-enhanced lanthanide fluorescence immunoassay)", "details": "one partner purified"}}, "note": "Substitutions are numbered along the chain they refer to. In names and notes the source's numbering stands. Several values for one entry are separate records, joined by “and”; a condition that tells them apart may be missing. Equal values may be shown once."}
{"binder": "B1", "values": [{"measurement": "Kd", "setting": "[1]", "value": "4.2 ± 0.9", "unit": "nM"}, {"measurement": "koff", "setting": "[1]", "value": "0.00021 s⁻¹ and 0.00053 s⁻¹"}, {"measurement": "kon", "setting": "[1]", "value": 55000, "unit": "M⁻¹ s⁻¹"}, {"measurement": "koff", "setting": "[2]", "value": 0.00036, "unit": "s⁻¹"}, {"measurement": "Kd", "setting": "[3]", "value": "1.4 ± 1.2", "unit": "nM"}, {"measurement": "koff", "setting": "[3]", "value": 0.00015, "unit": "s⁻¹"}, {"measurement": "kon", "setting": "[3]", "value": 140000, "unit": "M⁻¹ s⁻¹"}, {"measurement": "Kd", "setting": "[4]", "value": "202 ± 28.2", "unit": "nM"}, {"measurement": "koff", "setting": "[4]", "value": 0.0093, "unit": "s⁻¹"}, {"measurement": "kon", "setting": "[4]", "value": 21000, "unit": "M⁻¹ s⁻¹"}]}
{"binder": "B2", "values": [{"measurement": "binding result", "setting": "[5]", "value": "binds"}, {"measurement": "binding result", "setting": "[6]", "value": "binds"}]}
{"binder": "B3", "values": [{"measurement": "binding result", "setting": "[5]", "value": "binds"}, {"measurement": "binding result", "setting": "[6]", "value": "binds"}]}
{"binder": "B4", "values": [{"measurement": "binding result", "setting": "[5]", "value": "binds"}, {"measurement": "koff", "setting": "[6]", "value": 0.00012, "unit": "s⁻¹"}, {"measurement": "koff", "setting": "[7]", "value": 0.00015, "unit": "s⁻¹"}]}
{"binder": "B5", "values": [{"measurement": "Kd", "setting": "[1]", "value": "1.8 ± 0.5", "unit": "nM"}, {"measurement": "koff", "setting": "[1]", "value": 0.00029, "unit": "s⁻¹"}, {"measurement": "kon", "setting": "[1]", "value": 65000, "unit": "M⁻¹ s⁻¹"}, {"measurement": "koff", "setting": "[2]", "value": 0.00041, "unit": "s⁻¹"}, {"measurement": "Kd", "setting": "[3]", "value": "1.4 ± 0.6", "unit": "nM"}, {"measurement": "kon", "setting": "[3]", "value": 121000, "unit": "M⁻¹ s⁻¹"}, {"measurement": "koff", "setting": "[8]", "value": 0.005, "unit": "s⁻¹"}, {"measurement": "Kd", "setting": "[9]", "value": "116 ± 19.6", "unit": "nM"}, {"measurement": "koff", "setting": "[9]", "value": 0.0047, "unit": "s⁻¹"}, {"measurement": "kon", "setting": "[9]", "value": 13000, "unit": "M⁻¹ s⁻¹"}]}
{"binder": "B6", "values": [{"measurement": "binding result", "setting": "[10]", "value": "binds"}]}
{"binder": "B7", "values": [{"measurement": "binding result", "setting": "[11]", "value": "binds"}]}
{"binder": "B8", "values": [{"measurement": "binding result", "setting": "[5]", "value": "binds"}, {"measurement": "binding result", "setting": "[6]", "value": "binds"}]}
{"binder": "B9", "values": [{"measurement": "koff", "setting": "[12]", "value": 0.0295, "unit": "s⁻¹"}, {"measurement": "binding result", "setting": "[5]", "value": "binds"}, {"measurement": "Kd", "setting": "[7]", "value": "2.1 ± 0.1", "unit": "nM"}, {"measurement": "koff", "setting": "[7]", "value": 0.00017, "unit": "s⁻¹"}]}
{"binder": "B10", "values": [{"measurement": "Kd", "setting": "[1]", "value": "6.6 ± 0.9", "unit": "nM"}, {"measurement": "kon", "setting": "[1]", "value": 54000, "unit": "M⁻¹ s⁻¹"}, {"measurement": "koff", "setting": "[2]", "value": 0.00049, "unit": "s⁻¹"}, {"measurement": "Kd", "setting": "[3]", "value": "1.3 ± 0.7", "unit": "nM"}, {"measurement": "koff", "setting": "[3]", "value": 0.00014, "unit": "s⁻¹"}, {"measurement": "kon", "setting": "[3]", "value": 138000, "unit": "M⁻¹ s⁻¹"}, {"measurement": "Kd", "setting": "[4]", "value": "271 ± 31.1", "unit": "nM"}, {"measurement": "koff", "setting": "[4]", "value": 0.0173, "unit": "s⁻¹"}, {"measurement": "kon", "setting": "[4]", "value": 23000, "unit": "M⁻¹ s⁻¹"}]}
{"binder": "B11", "values": [{"measurement": "binding result", "setting": "[13]", "value": "binds"}]}
